Laboratory results published in patent US11319601B2, “Cell based assay” (Medical Diagnostic Laboratories, L.L.C., priority 2017, dated 2022).
“Also recorded” adds a separate entry of the source.

Assays:
T862A HER2 receptor = molecular target: T1, T862A HER2 receptor (Homo sapiens, UniProt P04626, T862A); test: HER2 reporter cells transfected with linear expression cassette of T862A HER2, all-in-one method; format: cell-based
T1 construct: expressed in transfected cells; host or cells: HER2 reporter cells (clone #1)
Description: T862A corresponds to a missense mutation of HER2, which changes Threonine (T) into Alanine (A) at amino acid position of 862. In order to functionally characterize this mutation, PCR-mediated overlapping extension was employed to construct a linear expression cassette of HER2 carrying this mutation. The linear expression cassette of mutant HER2 DNA was transfected into the reporter cells followed by treatment with NRG1 and its inhibitors using the “all-in-one” method. The luciferase reporter activity was measured 24 hours post-transfection.

wild-type HER2 receptor = molecular target: T2, wild-type HER2 receptor (Homo sapiens, UniProt P04626); test: Clone #28 stable 6×JNK-Luc reporter cells with HER3 plasmid and HER2 linear expression cassette; format: cell-based; details: HER3 plasmid and HER2 linear expression DNA, 6 hours
T2 construct: expressed in transfected cells
Protocol: In the assay of the invention, expression of patient HER2 receptor is in the linear expression cassette format instead of plasmid DNA. Therefore, the clone #28 cells were transfected with HER3 expression plasmid and HER2 linear expression DNA. After 24 hours, the transfected cells were stimulated with a serial dilution of NRG1 for 6 hours. The luciferase reporter activity was measured. […] Therefore, this clone can be used to measure HER2 receptor activity by transfecting linear expression DNA of HER2.
In order to validate that the clone #28 cells was capable to measure the HER2 receptor activity, expression plasmids of HER3 were co-transfected with wild-type, constitutively active or kinase-dead HER2 receptors. […] The luciferase reporter activity of the transfected cells was measured by Nano-Glo® Luciferase Assay (Promega). […] However, no activation of reporter was detected when the cells were transfected with kinase-dead form of HER2 receptor.
In order to validate that the clone #28 reporter cells were capable of measuring the response of HER2 receptor to its inhibitors, these cells were first transfected with the HER2 linear expression DNA and HER3 expression plasmids followed by treatment of HER2 inhibitors for 6 hours in the presence of NRG1. The luciferase reporter activity of the treated cells was measured by Nano-Glo® Luciferase Assay (Promega). […]

P780ins HER2 receptor = molecular target: T3, P780ins HER2 receptor (Homo sapiens, UniProt P04626, INS780GSP); test: HER2 reporter cells transfected with linear expression cassette of P780ins HER2, all-in-one method; format: cell-based; details: all-in-one method
T3 construct: expressed in transfected cells; host or cells: HER2 reporter cells (clone #1)
Description: P780ins corresponds to an insertion mutation of HER2, which adds 3 amino acids (GSP) after the amino acid position of […] (Proline—P). In order to functionally characterize this mutation, PCR-mediated overlapping extension was employed to construct linear expression cassette of HER2 carrying this insertion. The linear expression cassette of mutant HER2 DNA was first transfected into the reporter cells followed by treatment with NRG1 and its inhibitors using the “all-in-one” method. The luciferase reporter activity was measured 24 hours post-transfection.

L755S HER2 receptor = molecular target: T4, L755S HER2 receptor (Homo sapiens, UniProt P04626, L755S); test: HER2 reporter cells transfected with linear expression cassette of L755S HER2, all-in-one method; format: cell-based
T4 construct: expressed in transfected cells; host or cells: HER2 reporter cells (clone #1)
Description: L755S corresponds to a missense mutation of HER2, which changes leucine (L) into serine (S) at amino acid position of 755. In order to functionally characterize this mutation, PCR-mediated overlapping extension was employed to construct linear expression cassette of HER2 carrying this mutation. The linear expression cassette of mutant HER2 DNA was first transfected into the reporter cells followed by treatment with NRG1 and its inhibitors using the “all-in-one” method. The luciferase reporter activity was measured 24 hours post-transfection.

[1] = system: HER1, HER2 and HER3 receptors; test: ERK-Luc, JNK-Luc and NFkB-Luc reporters in HEK293 cells co-transfected with HER1, HER2 and HER3, treated with ligand; format: cell-based, human; details: ligand 6 hours; HER1, HER2, HER3 co-transfected HEK293
Protocol: In order to identify reporters to measure the activity of HER2 receptor, expression plasmids of HER1, HER2 and HER3 were co-transfected with different reporter constructs, including ERK-Luc, JNK-Luc and NFkB-Luc, into the HEK293 cells. After 24 hours, the transfected cells were treated with either EGF (HER1 receptor ligand) or NRG1 (HER3 receptor ligand) for 6 hours. The luciferase reporter activity of the transfected cells was measured by Nano-Glo® Luciferase Assay (Promega). […] JNK-Luc reporter was activated when the transfected cells were treated with either HER1 or HER3 ligand (FIG. 11B).
For cell transfection experiments, HEK293 cells (ATCC) were plated at density of 4-8×10^4 cells per well (96-well plates) or 1-2×10^4 cells per well (384-well plates) in phenol red-free MEM containing 10% FBS and antibiotics. Either DNA plasmid or linear DNA was mixed with TransIT-293 transfection reagent (Mirus Bio LLC). Once cells were trypsinized, DNA transfection mix was added. The cells were then incubated for 24 or 48 hours.

“NRG1: neuregulin-1, HER3 receptor ligand” was tested, and the “response of mutant HER2 reporter activity to ligand” value (from here on “response”) (T862A HER2 receptor) was “dose-dependent manner”, the “reporter activation by ligand” value (wild-type HER2 receptor) was “dose dependent manner; also recorded: activated” and the “response” value (P780ins HER2 receptor) was “independent”. The “response” value (L755S HER2 receptor) was “responds to treatment”, the ERK-Luc reporter activation [1] was “activated” and the JNK-Luc reporter activation [1] was “activated”. For the same substance, the NFkB-Luc reporter activation [1] was “no activation”.
